The source of these data is paper PMC5865148 (Nature Communications, 2018).

Common to all, as to settings: both partners purified
Experiment [1] concerns the target T1, soluble human BAFF (aa 134-285) E266A (human, UniProt Q9Y275 134-285, E266A).
T1 construct: also called BAFF E266A; source: E. coli BL21 (DE3), purified as described for wild-type BAFF; not shown: His6, N-terminal, cleaved
Nature of the experiment: SPR; about 1000 RU of belimumab Fab immobilised on a CM-5 chip by amine coupling; BAFF wild type or mutant flowed at 2 to 250 nM; 20 mM sodium citrate pH 5.6, 200 mM NaCl; 25 °C; BIAcore T100; sensorgrams locally fitted; in duplicate. On the technique in general: Surface plasmon resonance follows binding to a sensor surface in real time, without labels.

The target of experiment [2] is T2, soluble human BAFF (aa 134-285) R231A (human, UniProt Q9Y275 134-285, R231A).
T2 construct: also called BAFF R231A; source: E. coli BL21 (DE3), purified as described for wild-type BAFF; not shown: His6, N-terminal, cleaved
Described as above.

Experiment [3] addresses T3, soluble human BAFF (aa 134-285) L224A (human, UniProt Q9Y275 134-285, L224A).
T3 construct: also called BAFF L224A; source: E. coli BL21 (DE3), purified as described for wild-type BAFF; not shown: His6, N-terminal, cleaved
Described as above.

The target in experiment [4] is T4, soluble human BAFF (aa 134-285) I233A (human, UniProt Q9Y275 134-285, I233A).
T4 construct: also called BAFF I233A; source: E. coli BL21 (DE3), purified as described for wild-type BAFF; not shown: His6, N-terminal, cleaved
Described as above.

Experiment [5] concerns the target T5, soluble human BAFF (aa 134-285) L240A (human, UniProt Q9Y275 134-285, L240A).
T5 construct: also called BAFF L240A; source: E. coli BL21 (DE3), purified as described for wild-type BAFF; not shown: His6, N-terminal, cleaved
The description is as above.

The target in experiment [6] is T6, soluble human BAFF (aa 134-285) D222A (human, UniProt Q9Y275 134-285, D222A).
T6 construct: also called BAFF D222A; source: E. coli BL21 (DE3), purified as described for wild-type BAFF; not shown: His6, N-terminal, cleaved
The experiment is described as above.

The target in experiment [7] is T7, soluble human BAFF (aa 134-285) Y206A (human, UniProt Q9Y275 134-285, Y206A).
T7 construct: also called BAFF Y206A; source: E. coli BL21 (DE3), purified as described for wild-type BAFF; not shown: His6, N-terminal, cleaved
The description is as above.

Experiment [8] has as its target T8, soluble human BAFF (aa 134-285) Y163A (human, UniProt Q9Y275 134-285, Y163A).
T8 construct: also called BAFF Y163A; source: E. coli BL21 (DE3), purified as described for wild-type BAFF; not shown: His6, N-terminal, cleaved
Described as above.

Experiment [9] concerns the target T9, soluble human BAFF (aa 134-285) N242A (human, UniProt Q9Y275 134-285, N242A).
T9 construct: also called BAFF N242A; source: E. coli BL21 (DE3), purified as described for wild-type BAFF; not shown: His6, N-terminal, cleaved
The experiment is described as above.

Experiment [10] has as its target T10, soluble human BAFF (aa 134-285) R265A (human, UniProt Q9Y275 134-285, R265A).
T10 construct: also called BAFF R265A; source: E. coli BL21 (DE3), purified as described for wild-type BAFF; not shown: His6, N-terminal, cleaved
The description is as above.

In experiment [11] the target is T11, soluble form of human BAFF (aa 134–285) (human, UniProt Q9Y275).
T11 construct: Cloned in pET-28a; On gel filtration it runs as trimer and as 60-mer (20 trimers); the trimer fractions were collected; also called BLyS; source: E. coli BL21 (DE3), purified (HisTrap, thrombin cleavage, gel filtration; trimer fractions collected); not shown: His6, N-terminal, cleaved
Nature of the experiment: SEC; analytical gel filtration, Superdex 200 Increase 10/300 GL, 20 mM HEPES pH 7.0, 200 mM NaCl; BAFF alone, Fab alone, and BAFF incubated 1 h with an excess of Fab. On the technique in general: SEC sorts molecules by how far they enter the pores of the column.

B1: belimumab Fab (Fab, V domains shown)
VH: QVQLQQSGAEVKKPGSSVRVSCKASGGTFNNNAINWVRQAPGQGLEWMGGIIPMFGTAKYSQNFQGRVAITADESTGTASMELSSLRSEDTAVYYCARSRDLLLFPHHALSPWGRGTMVTVSS
VL: SSELTQDPAVSVALGQTVRVTCQGDSLRSYYASWYQQKPGQAPVLVIYGKNNRPSGIPDRFSGSSSGNTASLTITGAQAEDEADYYCSSRDSSGNHWVFGGGTELTVLG
notes: followed by HHHHHH (the tag); Fab of a fully human IgG1 lambda antibody; also called belimumab Fab fragment; Benlysta Fab; source: E. coli Top10F, periplasmic expression, purified (HisTrap, gel filtration)
As usually defined, the Kd is the equilibrium constant for the complex coming apart. High values mean a looser complex, low ones a tighter complex. The koff is the rate constant with which the complex falls apart. As usually defined, the kon is the rate constant with which the complex forms. On to B1, for which the Kd in [1] came out at 2.34 nM; in experiment [2] it was 2.85 nM; in [3], 7.77 nM; in experiment [4], 2.64 nM; in experiment [5], 1.45 nM; in experiment [6], 4.34 nM. The Kd in experiment [7] stood at 14.1 nM; in [8], 1.45 nM; in experiment [9], 1.22 nM; in [10] it was 3.79 nM. The koff in [1] stood at 0.000245 s⁻¹; in experiment [2], 0.000128 s⁻¹; in experiment [3], 0.00119 s⁻¹; in experiment [4], 0.000328 s⁻¹; in [5], 0.000145 s⁻¹; in [6], 0.000357 s⁻¹. For the same molecule, the off-rate constant (koff) in [7] was determined as 0.00783 s⁻¹; in experiment [8] it was 0.000137 s⁻¹; in [9] it was 0.000167 s⁻¹; in [10] it was 5.59e-05 s⁻¹. For the same molecule, the kon in experiment [1] is 105000 M⁻¹ s⁻¹; in experiment [2], 45000 M⁻¹ s⁻¹; in experiment [3] it was 153000 M⁻¹ s⁻¹; in experiment [4] it was 124000 M⁻¹ s⁻¹; in experiment [5], 101000 M⁻¹ s⁻¹; in experiment [6] it was 82200 M⁻¹ s⁻¹. Moreover, the kon was determined as 556000 M⁻¹ s⁻¹ in experiment [7], 94400 M⁻¹ s⁻¹ in experiment [8], 137000 M⁻¹ s⁻¹ in experiment [9] and 14800 M⁻¹ s⁻¹ in [10].

B2: belimumab Fab (Fab, V domains shown)
VH: QVQLQQSGAEVKKPGSSVRVSCKASGGTFNNNAINWVRQAPGQGLEWMGGIIPMFGTAKYSQNFQGRVAITADESTGTASMELSSLRSEDTAVYYCARSRDLLLFPHHALSPWGRGTMVTVSS
VL: SSELTQDPAVSVALGQTVRVTCQGDSLRSYYASWYQQKPGQAPVLVIYGKNNRPSGIPDRFSGSSSGNTASLTITGAQAEDEADYYCSSRDSSGNHWVFGGGTELTVL
notes: heavy chain of the Fab of belimumab (fully human IgG1 lambda); in the deposited structures PDB 5Y9J and 5Y9K; lambda light chain of belimumab; also called Benlysta; belimumab Fab fragment; source: E. coli Top10F, periplasmic expression, purified (HisTrap, gel filtration)
Usually stoichiometry N stands for the number of molecules, sites or subunits per partner or assembly. As to B2, in [11], the “stoichiometry N” value was 1 BAFF protomer per Fab (printed 3:3).
